{
  "source": "patent US7572612B2",
  "about": "“Method of production of para-hydroxycinnamic acid using a thermostable TAL enzyme” (E.I. du Pont de Nemours and Company, priority 2006, dated 2009)",
  "molecules": {"B1": {"name": "PcTAL: thermostable tyrosine ammonia lyase (PAL/TAL) enzyme from Phanerochaete chrysosporium, SEQ ID NO:1 (protein, listed as Phanerochaete chrysosporium)", "chain": "MPSRIDYYTSSGNGYAQSRKSSAIYPASASTGHAAPSTERKPELLDKFVEAYDELQSYREGKPVIVDGHNLSIPAVAATARFGAAVVLDENPETHERVLQSRRVIVDKVSTQRSVYGVSTGFGGSADTRTSDPLQLGHALLQHQHVGVLPTQTESPLPALPLGDPLATTSMPEAWVRGAILIRMNSLIRGHSGVRWELIEKMGELLRENITPLVPLRGSISASGDLSPLSYIAGTLIGSPAIRVFDGPASYGARRILPSNIALANHGVAPIPLSSKEHLGILNGTAFSASVGALALNEAVHLSLLAQVCTAMGTEAMIGAVGSFDAFIHDTARPHPGQVEVARNVRTLLEDSQMAVKAEDEVHIAEDEGELRQDRYPLRTAAQFLGPQIEDILSAHETVTLECNSTTDNPLIDGETGTVHHGGNFQAMAVTNAMEKTRLAIHHIGKLLFAQATELINPMMNRGLPPNLAATDPSHNYFAKGVDIHLAAYVGELGFLASPVSSHIQSAEMHNQAVNSLALVSARYTISALDVLSLLTAAYLYVLCQALDLRAMHNDLQSSLSAIVRELLPKHFPSAAKRADALLPILERTIFRALNSSSSADCKARMVSVAASTTTPLVDFLSADAALASELANITAFRTELATRAADALTTLRTQYLEGARGAAPASKYLGKTRPVYEFVRVTLNVPMHGRENLHNFEMGPGVEDGIIGNNISTIYEAIRDGKMQNVVMQLVKSIKA"}},
  "key": {"[1]": {"experiment": "Whole cell TAL activity temperature profile", "assay_type": "cell-based, E. coli", "experimental": "A fermentation run was performed as in Example 6 for strain DPD5154. The TAL activity of the strain was measured in a cell-based assay at different temperatures. The fermentation cell paste was resuspended in water, and diluted to OD600 of 3.0. Formation of pHCA was monitored in a 1.0 ml reaction in a UV grade disposable cuvette (VWR) for three minutes at λ315 nm, 35° C. with 0.03 OD600 of DPD5154 cells, in 100 mM CAPS, pH10 with 10 mM tyrosine. The pH value of the CAPS buffer was adjusted according to the corresponding assay temperature, which was varied from 25° C. to 60° C. The TAL activity was calculated using the following equation based on the assumption that 1.0 OD600 of E. coli cells is equivalent to 0.33 g/L dry cell weight (dcw). The extinction coefficient of pHCA at pH 10 at 315 nm had previously been experimentally determined to be 16,800 M^−1 cm^−1. One unit of enzyme activity is defined as the formation of 1.0 μM of pHCA product per minute reaction. The total TAL Activity (μM/min)=Initial Slope (/min)×[1,000,000 (μM/M)/16,800 M^−1 cm^−1]=Slope (/min)×59.52 (μM)"}, "[2]": {"experiment": "TAL activity temperature profile of purified enzyme", "assay_type": "biochemical", "experimental": "Six grams of cell pellet, from the 10 liter fermentation of DPD5154 was resuspended in 6.0 mL Buffer A (10 mM Tris-HCl, pH 8.0, 200 μM EDTA) containing one EDTA-free protease inhibitor tablet (Roche Biosciences, Palo Alto, Calif.), 1.0 μg/ml Leupeptin, 1.0 μg/ml Pepstatin, 40 μg/ml Bestatin 5.0 mM CA. Cells were lysed by two passes through a French Pressure Cell at 20,000 PSI, and clarified by centrifugation at 12,000×g for 20 minutes. To the clarified supernatant, 1.0% streptomycin sulfate was added, and the suspension was gently mixed for 15 minutes at 4° C. and then clarified by centrifugation at 12,000×g for 20 minutes. The supernatant was heated at 60° C. for 20 min, and centrifuged again at 12,000×g for 20 minutes. This clarified crude extract sample was loaded onto a Q Sepharose FF 16/10 anion exchange column equilibrated with buffer A in an Akta FPLC system (Amersham, GE Healthcare, Piscataway, N.J.), and eluted with 10 column volumes of gradient from Buffer A, to Buffer A containing 1.0 M NaCl. Five ml fractions were collected from the column and assayed for TAL activity as described above. The fractions containing TAL activity were pooled. To the pooled anion exchange fractions containing TAL activity, saturated (NH4)2SO4 (4.0M) was added to final 30% saturation. After centrifugation at 12,000 g for 20 minutes, additional saturated (NH4)2SO4 (4.0M) was added to the supernatant fraction to a final 50% saturation. The mixture was centrifuged again at 12,000 g for 20 minutes, and the supernatant was removed. […] The purity of the PcTAL protein in the fractions was analyzed by SDS-PAGE. The fractions containing TAL activity with high purity as determined by SDS-PAGE were pooled. […]\nThe in vitro enzymatic assay using the purified PcTAL was performed as a comparison to the whole cell assay. The temperature profile of the purified PcTAL enzyme (from Example 6) was measured at temperatures varying from 25° C. to 60° C. in 100 mM CAPS buffer, pH 10, containing 1.0 mM tyrosine. […]"}, "[3]": {"experiment": "Bioconversion of tyrosine to pHCA by cell suspensions in 50 ml tubes", "assay_type": "cell-based, E. coli", "settings": "pH 9.9, 0.5 g dcw/L, 20 g/L tyrosine (Example 11)", "experimental": "A suspension of DPD5154 cells in ˜75 ml of saline solution (8.5 g NaCl/L) with a cell concentration at an OD550 of 221.47 was used. The desired OD550 of 2.998 (0.989 g dcw/L) was achieved through serial dilution of the original sample. The cell suspension was equilibrated to 50° C., titrated to pH 9.9 and stored at 50° C. A tyrosine stock of 40 g/L at pH 9.9 was also prepared and stored at 50° C. Reactions measuring bioconversion of tyrosine to pHCA by the cell suspension were carried out at the following temperatures: 34° C., 39° C., 47° C., and 59° C. Each reaction was initiated by adding 5.0 ml of the cell suspension to 5.0 ml of the 40 g/L tyrosine solution in a 50 ml disposable conical tube. The final concentration of cells in each reaction was 0.5 g dcw/L. The final concentration of tyrosine in each reaction was 20 g/L (110 mM). All reactions were incubated at the temperatures indicated above with shaking at 180 rpm. Samples (750 μl) were taken at 30, 60, 90, 120 minutes, centrifuged (14,000×g for ˜8 minutes), the supernatants filtered through 0.2 um filters (Costar #8161), and the filtrates diluted using 50 mM Tris/HCl, pH 7.5. The filtrates were analyzed by HPLC for the amount of pHCA as described in General Methods. The optimum reaction temperature among those temperatures tested was determined to be 39° C., and the reaction slowed down dramatically at 59° C. […]\nTo determine the optimum pH (between pH 9.8-11.0) for the bioconversion reaction of tyrosine to pHCA at 42° C. using strain DPD5154, reactions were performed as described in Example 11. Tyrosine solutions (40 g/L concentration) were titrated to pH 9.8, 10.0, 10.2, 10.5, and 11.0 and stored at 42° C. Reactions were initiated by adding 5.0 ml of cell suspension to 5.0 ml of each tyrosine solution in a 50 ml disposable conical tube. The final concentration of cells in each reaction was 0.5 g dcw/L and the final concentration of tyrosine was 20 g/L (110 mM). Reactions were incubated at 42° C. with shaking at 180 rpm."}},
  "data": [
    {"molecule": "B1", "values": [
      {"measurement": "activity at 60° C. relative to that at 25° C. in whole cells", "setting": "[1]", "result": "about 6 fold"},
      {"measurement": "TAL activity at 55° C.", "setting": "[2]; 55° C.", "result": 1479, "unit": "U/g"},
      {"measurement": "TAL activity at 60° C.", "setting": "[2]; 60° C.", "result": 1431, "unit": "U/g"},
      {"measurement": "maximum activity of purified enzyme relative to that at 25° C.", "setting": "[2]; about 55° C. vs 25° C.", "result": "about 3 fold"},
      {"measurement": "pHCA (mM) formed in 2 h", "setting": "[3]; 34° C.", "result": 5.0, "unit": "mM"},
      {"measurement": "pHCA (mM) formed in 2 h", "setting": "[3]; 39° C.", "result": 6.2, "unit": "mM"},
      {"measurement": "pHCA (mM) formed in 2 h", "setting": "[3]; 47° C.", "result": 4.7, "unit": "mM"},
      {"measurement": "pHCA (mM) formed in 2 h", "setting": "[3]; 59° C.", "result": 0.02, "unit": "mM"}
    ]}
  ]
}
